This note sets out measurements from doi:10.1101/2021.02.07.430181.

Usually stoichiometry N stands for the number of molecules, sites or subunits per partner or assembly.

Holding throughout (assay): SAXS
The target in experiment [1] is TrK13-A578S (truncated and strep-tagged recombinant PfKelch13 with A578S) (P. falciparum 3D7).
The target in experiment [2] is TrK13-C580Y (truncated and strep-tagged recombinant PfKelch13 with C580Y) (P. falciparum 3D7).
Experiment [3] concerns the target TrK13-WT (truncated and strep-tagged recombinant PfKelch13, wild type) (P. falciparum 3D7).
Experiment [4] addresses TrK13-R539T (truncated and strep-tagged recombinant PfKelch13 with R539T) (P. falciparum 3D7).

Turning to “TrK13-A578S (truncated and strep-tagged recombinant PfKelch13 with A578S) (domain or fragment)”, the stoichiometry N in experiment [1] came to 6. Consider “TrK13-C580Y (truncated and strep-tagged recombinant PfKelch13 with C580Y) (domain or fragment)”, for which the stoichiometry N in experiment [2] is 6. On to “TrK13-WT (truncated and strep-tagged recombinant PfKelch13, wild type) (domain or fragment)”, for which, in experiment [3], the stoichiometry N turned out to be 6. Consider “TrK13-R539T (truncated and strep-tagged recombinant PfKelch13 with R539T) (domain or fragment)”, for which the stoichiometry N in experiment [4] was 6.
